According to article PMC6222095:
Where “and” joins values, the source holds several entries; their conditions need not be identical. Equal values may be shown once. One block for each substance: values may come before it.

Assays:
[1] = molecular target: recombinant FH SCR-6/8 His-402 (human); assay: SPR; Biacore X100, 150 RU (His-402 also 400 RU) of SCR-6/8 amine-coupled to a CM4 chip, SCR-6/8 allotypes flowed at 5-40 μM, 25 °C, HEPES buffer with 0.3 mg/ml nonspecific binding reducer; steady-state fits
[2] = molecular target: recombinant FH SCR-6/8 Tyr-402 (human); assay: as above
[3] = molecular target: complement factor H, homozygous Tyr-402, homozygous or heterozygous at I62V (human) (UniProt P08603); assay: SAXS; concentration dependence of Guinier I(0)/c at 0.4-3.3 mg/ml in HEPES buffer, two samples of each allotype; KD estimated assuming a monomer-dimer equilibrium (dimer to monomers)
[4] = molecular target: complement factor H, homozygous Tyr-402, homozygous or heterozygous at I62V (human) (UniProt P08603); assay: AUC; sedimentation velocity, 20 °C, 50,000 and 60,000 rpm, HEPES buffer (10 mM HEPES, 137 mM NaCl, pH 7.4), five samples of each allotype at 0.5, 1.1 and 2.1 mg/ml; c(s) peak integration; dimer and trimer percentages at 1.1 mg/ml
[5] = molecular target: complement factor H, homozygous Tyr-402/Val-62 allotype (human) (UniProt P08603); assay: native MS; Q-ToF nanoflow, FH at about 4 mg/ml (3.9 mg/ml, 25.3 μM) in 140 mM ammonium acetate, pH 7.0; peak integration
[6] = molecular target: complement factor H, homozygous Tyr-402/Val-62 allotype (human) (UniProt P08603); assay: SPR; Biacore X100, 800 RU of full-length FH amine-coupled to a CM3 chip, FH allotypes flowed at 1.3-12.3 μM, 25 °C, HEPES buffer; estimated KD from steady-state 1:1 affinity fit of maximum responses; sensorgrams did not fit a 1:1 kinetic model
[7] = molecular target: complement factor H, homozygous Tyr-402/Val-62 allotype (human) (UniProt P08603); assay: native MS; Q-ToF nanoflow, FH at about 4 mg/ml (4.4 or 3.6 mg/ml) in 1 M ammonium acetate, pH 7.0; peak integration
[8] = molecular target: complement factor H, double homozygous His-402/Val-62 allotype (human) (UniProt P08603); assay: SAXS; concentration dependence of Guinier I(0)/c at 0.4-3.3 mg/ml in HEPES buffer, two samples of each allotype; KD estimated assuming a monomer-dimer equilibrium (dimer to monomers)
[9] = molecular target: complement factor H, double homozygous His-402/Val-62 allotype (human) (UniProt P08603); assay: native MS; Q-ToF nanoflow, FH at about 4 mg/ml (3.9 mg/ml, 25.3 μM) in 140 mM ammonium acetate, pH 7.0; peak integration
[10] = molecular target: complement factor H, double homozygous His-402/Val-62 allotype (human) (UniProt P08603); assay: SPR; Biacore X100, 800 RU of full-length FH amine-coupled to a CM3 chip, FH allotypes flowed at 1.3-12.3 μM, 25 °C, HEPES buffer; estimated KD from steady-state 1:1 affinity fit of maximum responses; sensorgrams did not fit a 1:1 kinetic model
[11] = molecular target: complement factor H, double homozygous His-402/Val-62 allotype (human) (UniProt P08603); assay: native MS; Q-ToF nanoflow, FH at about 4 mg/ml (4.4 or 3.6 mg/ml) in 1 M ammonium acetate, pH 7.0; peak integration
[12] = molecular target: complement factor H, double homozygous His-402/Val-62 allotype (human) (UniProt P08603); assay: AUC; sedimentation velocity, 20 °C, 50,000 and 60,000 rpm, HEPES buffer (10 mM HEPES, 137 mM NaCl, pH 7.4), five samples of each allotype at 0.5, 1.1 and 2.1 mg/ml; c(s) peak integration; dimer and trimer percentages at 1.1 mg/ml

Substance: recombinant FH SCR-6/8 His-402 (domain or fragment)
Kd [1]: > 40 µM
Kd [2]: > 40 µM

Substance: complement factor H, homozygous Tyr-402/Val-62 allotype (from UniProt P08603 19-1231) (natural protein)
percent dimer [5]: 24%
percent trimer [5]: 4%
stoichiometry N [5]: < 3
Kd [6]: 8 µM
percent dimer [7]: 10%
stoichiometry N [7]: 2

Other lines, results leading:

Kd [3]: 16 µM and 18 µM
percent dimer [4]: 4%
percent oligomers (peaks 2-9) [4]: 11.7%
percent trimer [4]: 2.1%
stoichiometry N [4]: < 9
Substance: complement factor H, homozygous Tyr-402, homozygous or heterozygous at I62V (from UniProt P08603 19-1231) (natural protein)

Kd [8]: 11 µM and 22 µM
percent dimer [9]: 17%
percent trimer [9]: 6%
stoichiometry N [9]: < 3
Kd [10]: 6.7 µM
percent dimer [11]: 2%
stoichiometry N [11]: 2
percent dimer [12]: 5.7%
percent oligomers (peaks 2-9) [12]: 12.8%
percent trimer [12]: 2.5%
stoichiometry N [12]: < 9
Substance: complement factor H, double homozygous His-402/Val-62 allotype (from UniProt P08603 19-1231) (natural protein)

Kd [1]: > 40 µM
Kd [2]: > 40 µM
Substance: recombinant FH SCR-6/8 Tyr-402 (domain or fragment)
